Data on 3 molecules can be found in patent US20130230504A1 (CHILDREN S MEDICAL CENTER, published 2013).

In assay [1] the target is VEGF165 receptor (VEGF165R) (human) (UniProt O14786). The assay can be described thus: competition with 125I-VEGF165 (5 ng/ml) on HUVEC at 2 ug/ml GST-Ex 7, gamma counting.
Assay [2] has the same target. Kind of assay: competition with 125I-VEGF165 (5 ng/ml) on HUVEC (KDR/Flk-1 and VEGF165R), increasing GST-Ex 7+8, gamma counting.
Assay [3] has the same target. Kind of assay: competition with 125I-VEGF165 (5 ng/ml) on MDA-MB-231 cells (VEGF165R only), increasing GST-Ex 7+8, gamma counting.
In assay [4] the target is KDR/Flk-1 (human, UniProt P35968 20-1356). The assay can be described thus: cell-based or functional assay.
Chain of KDR/Flk-1 (P35968 20-1356): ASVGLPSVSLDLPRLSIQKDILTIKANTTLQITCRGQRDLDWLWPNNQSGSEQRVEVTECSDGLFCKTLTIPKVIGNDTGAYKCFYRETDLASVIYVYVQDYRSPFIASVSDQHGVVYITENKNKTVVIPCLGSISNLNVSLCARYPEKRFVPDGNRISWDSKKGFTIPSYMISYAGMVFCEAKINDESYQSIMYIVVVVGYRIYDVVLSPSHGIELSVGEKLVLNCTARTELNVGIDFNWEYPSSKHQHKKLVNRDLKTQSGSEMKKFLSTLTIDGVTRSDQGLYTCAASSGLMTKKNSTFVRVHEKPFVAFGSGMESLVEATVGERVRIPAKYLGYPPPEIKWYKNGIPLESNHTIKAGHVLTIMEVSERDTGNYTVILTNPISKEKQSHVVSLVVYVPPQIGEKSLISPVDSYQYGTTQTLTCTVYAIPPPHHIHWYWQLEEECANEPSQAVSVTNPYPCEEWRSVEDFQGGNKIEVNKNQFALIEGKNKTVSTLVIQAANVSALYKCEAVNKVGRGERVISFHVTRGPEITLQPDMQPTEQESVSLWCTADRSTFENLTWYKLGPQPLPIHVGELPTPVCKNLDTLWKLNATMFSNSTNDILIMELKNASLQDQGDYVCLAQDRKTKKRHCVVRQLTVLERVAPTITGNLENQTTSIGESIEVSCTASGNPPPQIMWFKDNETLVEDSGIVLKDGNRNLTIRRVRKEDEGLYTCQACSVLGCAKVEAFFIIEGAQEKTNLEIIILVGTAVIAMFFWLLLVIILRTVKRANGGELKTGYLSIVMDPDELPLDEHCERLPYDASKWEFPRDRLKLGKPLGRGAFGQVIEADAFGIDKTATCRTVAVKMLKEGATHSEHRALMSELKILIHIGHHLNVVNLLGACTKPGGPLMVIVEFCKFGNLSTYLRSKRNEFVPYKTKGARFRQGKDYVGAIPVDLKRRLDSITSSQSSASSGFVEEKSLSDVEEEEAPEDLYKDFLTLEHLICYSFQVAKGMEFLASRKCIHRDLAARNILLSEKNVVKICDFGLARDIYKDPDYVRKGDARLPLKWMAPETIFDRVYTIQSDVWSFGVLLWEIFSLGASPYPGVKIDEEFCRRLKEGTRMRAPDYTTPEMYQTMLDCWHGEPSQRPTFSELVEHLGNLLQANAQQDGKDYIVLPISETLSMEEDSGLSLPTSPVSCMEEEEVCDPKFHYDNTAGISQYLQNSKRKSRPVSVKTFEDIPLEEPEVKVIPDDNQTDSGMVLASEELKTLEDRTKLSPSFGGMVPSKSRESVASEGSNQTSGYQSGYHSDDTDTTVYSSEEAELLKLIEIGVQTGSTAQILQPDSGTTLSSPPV

Chain of VEGF165 receptor (VEGF165R) (human) (O14786 22-923): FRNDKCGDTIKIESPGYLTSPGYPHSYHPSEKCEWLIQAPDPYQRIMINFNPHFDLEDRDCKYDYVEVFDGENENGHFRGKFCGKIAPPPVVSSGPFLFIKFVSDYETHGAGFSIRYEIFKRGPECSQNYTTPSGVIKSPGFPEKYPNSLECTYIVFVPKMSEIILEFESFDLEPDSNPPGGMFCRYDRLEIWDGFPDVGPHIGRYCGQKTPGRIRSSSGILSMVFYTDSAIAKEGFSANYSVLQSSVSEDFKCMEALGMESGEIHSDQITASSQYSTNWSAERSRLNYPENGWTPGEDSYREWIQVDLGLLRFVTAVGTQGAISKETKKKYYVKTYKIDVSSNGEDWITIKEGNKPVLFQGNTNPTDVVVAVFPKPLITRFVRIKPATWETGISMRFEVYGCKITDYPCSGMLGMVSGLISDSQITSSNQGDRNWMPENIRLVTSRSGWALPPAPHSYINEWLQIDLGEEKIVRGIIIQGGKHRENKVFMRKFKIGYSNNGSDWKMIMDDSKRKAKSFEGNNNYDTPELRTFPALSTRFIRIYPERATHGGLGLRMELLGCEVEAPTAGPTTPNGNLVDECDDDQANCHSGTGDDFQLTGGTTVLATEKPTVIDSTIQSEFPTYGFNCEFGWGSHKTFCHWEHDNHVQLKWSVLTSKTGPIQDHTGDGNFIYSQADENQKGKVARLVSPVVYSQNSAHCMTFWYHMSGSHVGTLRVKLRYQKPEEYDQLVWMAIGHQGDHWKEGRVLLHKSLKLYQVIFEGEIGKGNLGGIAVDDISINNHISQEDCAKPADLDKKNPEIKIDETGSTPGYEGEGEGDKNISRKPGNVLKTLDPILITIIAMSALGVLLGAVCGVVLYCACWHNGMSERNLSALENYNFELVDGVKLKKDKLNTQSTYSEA

Take “GST-Ex 7 fusion protein (GST fused to the 44 amino acids encoded by VEGF exon 7 plus the first cysteine of exon 8) (from UniProt P08515 1-218)”: the percent inhibition of 125I-VEGF165 binding in assay [1] came to 80%.

Take “GST-Ex 7+8 fusion protein (GST fused to the VEGF165 exons 7- and 8-encoded peptide) (from UniProt P15692 187-191)”: the percent inhibition of 125I-VEGF165 binding in assay [2] was in the range of 85 to 95%; in assay [3], 97 to 98%.

B1: Human recombinant VEGF121 (ligand, UniProt P15692-9 27-147, looked up)
chain: APMAEGGGQNHHEVVKFMDVYQRSYCHPIETLVDIFQEYPDEIEYIFKPSCVPLMRCGGCCNDEGLECVPTEESNITMQIMRIKPHQGQHIGEMSFLQHNKCECRPKKDRARQEKCDKPRR
modifications: radioiodinated (125I, IODO-BEADS) in the cross-linking assays
Turning to B1, in assay [4], the “fold decrease in VEGF121-mediated HUVEC proliferation with 15 ug/ml GST-Ex 7+8” value was approximately 2 fold.
